Source: PMC10855774, “Role of Spexin in White Adipose Tissue Thermogenesis under Basal and Cold-Stimulated Conditions” (International Journal of Molecular Sciences, 2024)

Tests used:
ucp1, pgc1α, and prdm16 = details: obese female mice treated with SPX for 50 days; cited from earlier work
Excerpt: (§1) Little is known about the role of SPX in thermogenesis. […] In the liver, results are contradictory. While one study has shown that SPX decreases pgc1α expression both in vivo and in vitro [26], another study has shown the opposite effect. Thus, the aim of this study was to evaluate the role of SPX during WAT thermogenesis under both room temperature (RT) and cold-stimul ...

β3-adrenergic receptors = details: obese female mice treated with SPX for 50 days; cited from earlier work
Excerpt: as §1

[1] = tested on: beige precursors (PDGFRα+; EBF2+); experiment: Beige precursors (PDGFRα+; EBF2+) in the SVF by flow cytometry; format: in vivo, mice; details: SPX for 3 days prior to cold exposure; n = 4, t-test
Method: Fresh EAT pads were dissected, weighed, and digested with collagenase, as previously reported. Briefly, fat tissue was minced and digested using 1 mg/mL of the collagenase solution in DMEM (at 37 °C for 40–60 min). After centrifugation (1000 rpm for 15 min), the SVF pellets were filtered (in a 50-µm-mesh nylon cloth) and washed with DMEM (x3). SVF cells were then resuspended in DMEM supplemented with 10% (v/v) FBS, HEPES ([…]), 100 IU/mL of penicillin, and 100 µg/mL of streptomycin (basal medium) and reserved for the flow cytometry protocol.
The SVF was prepared as reported above and counted and filtered through a 70-μM cell strainer. To block unspecific binding, the cells were resuspended in 10% inactivated FBS in FACS buffer (1% BSA in PBS) for 10 min. Then, the cells were incubated with the surface antibody anti-Pdgfrα (CD140a)-PE/Cy7 (1:200, BioLegend, San Diego, CA, USA) and washed twice with FACS buffer, followed by centrifugation (300× g, 5 min). Fixation was performed with 2% paraformaldehyde in PBS for 20 min at room temperature. After washing, the cells were subjected to permeabilization with 0.1 % Triton X100 in PBS for 15 min at room temperature. […] The samples were analyzed on a FACS Calibur flow cytometer (BD bioscience, Franklin Lakes, NJ, USA). […]

galr2 = galr2 mRNA expression in AT depots (qRT-PCR); format: in vivo, mice; details: RT and cold
Method: (§2) Normal adult male C57BL/6 mice (four months of age) were kept in a temperature-controlled environment (20–22 °C and a fixed 12 h light/12 h dark cycle; lights on at 07:00 h) and fed ad libitum with Purina commercial rat/mouse chow (Ganave, Buenos Aires, Argentina, L0723/1). Mice were injected with SPX or PBS (29 µg/kg/day, Tocris, Bristol, UK) for ten days (the SPX and CTR groups, respectively). On the third day of the protocol, each group was subdivided into two other groups: one exposed to cold (4 °C, CTR-C and SPX-C, n = 12 mice for each group) and another one housed at RT (CTR and SPX, n = 15 mice for each group) (Figure 1). Food intake and body weight were measured every day. On the experimental day (day 10), the mice were euthanized under non-fasting conditions (08:00 to 09:00 h), and their trunk blood was collected; plasma samples were then frozen (–80 °C) until the metabolite measurement. Inguinal AT (IAT, subcutaneous depot), epididymal AT (EAT, visceral depot), and brown AT (BAT, subcutaneous depot) were aseptically dissected and weighed. These depots were kept at –80 °C for further procedures. Animals were euthanized according to protocols for animal use, in agreement with the NIH guidelines for the care and use of experimental animals. All experiments were approved by our Institutional Animal Care Committee (Approval code: 6NE-2023).
(§3) Total RNA was isolated from cells by the Trizol extraction method (Invitrogen, Life Technology, Waltham, MA, USA) and reverse-transcribed using random primers (250 ng) and RevertAid Reverse Transcriptase (200 U/µL, Thermo Scientific, Waltham, MA, USA). […] The expression levels were analyzed for β-actin (βactin, […] gene), Uncoupling Protein 1 (ucp1), proliferator-activated receptor gamma coactivator-1 alpha (pgc1α), cytochrome-c oxidase subunit 8b (cox8b), galanin receptors 2 and 3 (galr2 and galr3, respectively), and Spexin (spx). […] The relative changes in the expression level of each gene (ΔΔCt) were calculated by the ΔCt method.

[2] = Daily caloric intake and body weight of SPX-treated mice at RT or cold; format: in vivo; details: for body weight change: C × S p < 0.05
Method: as §2

spx = spx mRNA expression in AT depots (qRT-PCR); format: in vivo, mice
Method: as §2, §3

ucp1 = ucp1 mRNA expression in AT depots (qRT-PCR); format: in vivo, mice
Method: as §2
Total RNA was isolated from cells by the Trizol extraction method (Invitrogen, Life Technology, Waltham, MA, USA) and reverse-transcribed using random primers (250 ng) and RevertAid Reverse Transcriptase (200 U/µL, Thermo Scientific, Waltham, MA, USA). The cDNA (2 μL) was amplified with HOT FIRE Pol EvaGreenqPCR Mix Plus (Solis BioDyne, Tartu, Estonia) containing 0.5 μM of each specific primer, using a Rotor-Gene Q (Qiagen, Hilden, Germany). PCR efficiency was near 1. The expression levels were analyzed for β-actin (βactin, […] gene), Uncoupling Protein 1 (ucp1), proliferator-activated receptor gamma coactivator-1 alpha (pgc1α), cytochrome-c oxidase subunit 8b (cox8b), galanin receptors 2 and 3 (galr2 and galr3, respectively), and Spexin (spx). The designed primers are shown in alphabetical order in Table 1. The relative changes in the expression level of each gene (ΔΔCt) were calculated by the ΔCt method.

pgc1α = pgc1α mRNA expression in AT depots (qRT-PCR); format: in vivo, mice
Method: as §2, §3

[3] = Plasma SPX levels (ELISA) after SPX injection; format: in vivo, mice
Method: Circulating glucose (Glu) and triglyceride (Tg) levels were measured using commercial kits (Wiener Lab., Rosario, Argentina). Plasma SPX was measured using a commercial ELISA kit (SPX: Phoenix pharmaceutical EK-023-81).
Supplementary figure 1. SPX levels (ng/ml, EIA Phoe nix pharmaceutical) after intraperitoneal injec tion with SPX (29 µg/kg). or Vehicle in mic e Different time points we r e evaluated after ip. Injections (10, 20, 60, 180, 360 minutes).
Supplementary Figure 2. ucp1 (a), pgc1α (b) and cox8b (c) mRNA expression in B AT. In all case s, t wo -wa y A N O VA wa s performed for factor (S or C) and interaction (S x C) analysis and deta iled below the graph only when s ig n if ica nt .. When interaction is statist icall y s ig n if ica nt , group to gr oup comparison wa s performed by Bonferroni test. ++++ P<0.0001 vs. CTR and ***P<0.001 vs. CTR-C (n=4- 6 m ice per group). […]

[4] = cold-stimulated conditions (7 days 4 °C), SPX-C vs. CTR-C p < 0.0001

B1: Spexin (peptide, UniProt Q9BT56 27-116, looked up)
Spexin: APQRLLERRNWTPQAMLYLKGAQGRRFISDQSRRKDLSDRPLPERRSPNPQLLTIPEAATILLASLQKSPEDEEKNFDQTRFLEDSLLNW
modifications: Spexin
notes: novel adipokine, a peptide of 14 amino acids of the galanin family; purchased from Tocris
ucp1, pgc1α, and prdm16
  ucp1, pgc1α, and prdm16 expressions in BAT: decreased
β3-adrenergic receptors
  immunodetection of β3-adrenergic receptors in gonadal WAT: lower immunodetection
[1]
  abundance (%) of beige precursors in the SVF of EAT: no changes were observed in either of the two AT depots studied
  abundance (%) of beige precursors in the SVF of IAT: no changes were observed in either of the two AT depots studied
galr2; S p < 0.01
  galr2 mRNA expression in EAT: decreased in both groups treated with SPX
  galr2 mRNA expression in IAT: decreased in both groups treated with SPX
galr2; Supplementary Figure S3
  galr2 mRNA expression in BAT: no differences were found
[2]; SPX and SPX-C mice, basal and cold-stimulated conditions, Pearson correlation, p < 0.01
  correlation between initial body weight and body weight loss after SPX treatment: significant positive correlation
[2]; male C57BL/6 mice, SPX 29 µg/kg/day for ten days, RT or cold (4 °C) from day 3, vs. CTR, repeated measures ANOVA, n = 6–9
  caloric intake: no differences were observed due to the SPX treatment
[2]; male C57BL/6 mice, SPX 29 µg/kg/day for ten days, basal conditions (RT), SPX vs. CTR
  body weight change: lost body weight vs. CTR ones
[2]; male C57BL/6 mice, SPX 29 µg/kg/day for ten days, cold (4 °C) from day 3, SPX-C vs. CTR-C
  body weight change: lost less weight than their CTR-C counterparts
spx; RT and cold
  spx mRNA expression in EAT: No changes
spx; RT and cold, Supplementary Figure S3
  spx mRNA expression in BAT: No changes
spx; cold conditions, C × S p < 0.001
  spx mRNA expression in IAT: lower spx expression than CTR mice
ucp1; RT and cold, C p < 0.001, Supplementary Figure S2a
  ucp1 mRNA expression in BAT: increased under cold exposure despite the SPX treatment
ucp1; RT, SPX vs. CTR
  ucp1 mRNA expression in IAT and EAT: SPX inhibition was also significant, but only when a t-test was performed
ucp1; [4]
  ucp1 mRNA expression in EAT: ucp1 inhibition
  ucp1 mRNA expression in IAT: ucp1 inhibition
pgc1α; RT and cold, Supplementary Figure S2b
  pgc1α mRNA expression in BAT: no changes were observed
pgc1α; cold conditions, C p < 0.0001
  pgc1α mRNA expression in EAT: increased in EAT for both the control and treated groups
pgc1α; cold, SPX-C vs. CTR-C, p < 0.001
  pgc1α mRNA expression in IAT: inhibited due to SPX in cold conditions
[3]; day 10 of SPX 29 µg/kg/day, RT or cold, ELISA, n = 6–7
  plasma SPX levels at end of protocol: did not differ between groups
[3]; mice, single ip. injection SPX 29 µg/kg, 1 h, plasma ELISA
  plasma SPX levels 1 h after SPX injection vs. basal: two-fold higher than basal ones
[3]; mice, single ip. injection SPX 29 µg/kg, 3 h, plasma ELISA
  plasma SPX levels 3 h after SPX injection vs. basal: back to basal levels
[3]; mice, single ip. injection SPX 29 µg/kg, plasma ELISA at 10, 20, 60, 180, 360 minutes
  SPX half-life in plasma: short
